Reference: the supplement of paper PMC9112550, “Optimization of the antimicrobial peptide Bac7 by deep mutational scanning” (BMC Biology, 2022)

System: Escherichia coli TOP10
Test: shrunken log2 fold change of peptide-encoding DNA abundance (4.5 h post-induction vs induction); higher = less antimicrobial activity (less host growth inhibition)
Conditions: time post-induction: 4.5 h; library: site-saturation at positions 5, 18, 19, 20
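Note: peptides expressed intracellularly from a pBAD plasmid library in pooled LB shake-flask culture, induced with 0.3% L-arabinose, DNA abundance read by NGS, three biological replicates, DESeq2 with apeglm shrinkage.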

Sequence | shrunken log2 fold change
RRIRMRPPRLPRPRPRPDYSPRP | -0.0167
RRIRMRPPRLPRPRPRPEAKPRP | 2.72
RRIRMRPPRLPRPRPRPEATPRP | 4.04
RRIRMRPPRLPRPRPRPEAWPRP | 2.15
RRIRMRPPRLPRPRPRPECKPRP | 0.0491
RRIRMRPPRLPRPRPRPECLPRP | 1.6
RRIRMRPPRLPRPRPRPECVPRP | 2.97
RRIRMRPPRLPRPRPRPEDDPRP | -0.01
RRIRMRPPRLPRPRPRPEDHPRP | 1.29
RRIRMRPPRLPRPRPRPEDNPRP | 0.0325
RRIRMRPPRLPRPRPRPEFDPRP | 2.44
RRIRMRPPRLPRPRPRPEFRPRP | 0.275
RRIRMRPPRLPRPRPRPEFSPRP | 1.51
RRIRMRPPRLPRPRPRPEGLPRP | 0.0151
RRIRMRPPRLPRPRPRPEGMPRP | 2.24
RRIRMRPPRLPRPRPRPEHGPRP | 0.406
RRIRMRPPRLPRPRPRPEIHPRP | 0.176
RRIRMRPPRLPRPRPRPEIQPRP | 0.0386
RRIRMRPPRLPRPRPRPEKVPRP | 1.45
RRIRMRPPRLPRPRPRPELGPRP | 0.276
RRIRMRPPRLPRPRPRPELQPRP | -0.00152
RRIRMRPPRLPRPRPRPEMHPRP | 0.346
RRIRMRPPRLPRPRPRPEMVPRP | 0.0598
RRIRMRPPRLPRPRPRPENDPRP | 3.77
RRIRMRPPRLPRPRPRPENYPRP | -0.0708

Sequence | shrunken log2 fold change
RRIRMRPPRLPRPRPRPEPEPRP | 2.64
RRIRMRPPRLPRPRPRPEPGPRP | 2.73
RRIRMRPPRLPRPRPRPEQLPRP | 1.94
RRIRMRPPRLPRPRPRPERMPRP | 1.35
RRIRMRPPRLPRPRPRPESTPRP | 2.28
RRIRMRPPRLPRPRPRPEVFPRP | 1.35
RRIRMRPPRLPRPRPRPEWKPRP | 0.0511
RRIRMRPPRLPRPRPRPEYQPRP | 0.0424
RRIRMRPPRLPRPRPRPFAPPRP | 0.633
RRIRMRPPRLPRPRPRPFAWPRP | 0.139
RRIRMRPPRLPRPRPRPFCGPRP | -0.0687
RRIRMRPPRLPRPRPRPFDGPRP | 0.136
RRIRMRPPRLPRPRPRPFDMPRP | -0.192
RRIRMRPPRLPRPRPRPFECPRP | 0.0161
RRIRMRPPRLPRPRPRPFEIPRP | 0.0739
RRIRMRPPRLPRPRPRPFFQPRP | -0.134
RRIRMRPPRLPRPRPRPFFRPRP | 0.406
RRIRMRPPRLPRPRPRPFIIPRP | -0.268
RRIRMRPPRLPRPRPRPFIPPRP | -0.26
RRIRMRPPRLPRPRPRPFKSPRP | -0.0472
RRIRMRPPRLPRPRPRPFLQPRP | -0.0339
RRIRMRPPRLPRPRPRPFLTPRP | 0.0674
RRIRMRPPRLPRPRPRPFNLPRP | -0.16
RRIRMRPPRLPRPRPRPFPNPRP | -0.288
RRIRMRPPRLPRPRPRPFPYPRP | -0.23

Sequence | shrunken log2 fold change
RRIRMRPPRLPRPRPRPFRAPRP | 0.452
RRIRMRPPRLPRPRPRPFSAPRP | 0.138
RRIRMRPPRLPRPRPRPFSFPRP | -0.0784
RRIRMRPPRLPRPRPRPFSPPRP | -0.189
RRIRMRPPRLPRPRPRPFTHPRP | -0.107
RRIRMRPPRLPRPRPRPFTIPRP | -0.386
RRIRMRPPRLPRPRPRPFVAPRP | 0.113
RRIRMRPPRLPRPRPRPFVEPRP | -0.0699
RRIRMRPPRLPRPRPRPFVPPRP | -0.375
RRIRMRPPRLPRPRPRPFYCPRP | -0.118
RRIRMRPPRLPRPRPRPFYLPRP | -0.191
RRIRMRPPRLPRPRPRPFYPPRP | -0.401
RRIRMRPPRLPRPRPRPGAIPRP | 1.4
RRIRMRPPRLPRPRPRPGFRPRP | 0.525
RRIRMRPPRLPRPRPRPGGCPRP | 0.888
RRIRMRPPRLPRPRPRPGGLPRP | 0.818
RRIRMRPPRLPRPRPRPGHEPRP | 0.086
RRIRMRPPRLPRPRPRPGIDPRP | 0.403
RRIRMRPPRLPRPRPRPGIFPRP | 0.00597
RRIRMRPPRLPRPRPRPGIMPRP | 0.246
RRIRMRPPRLPRPRPRPGKIPRP | 0.0308
RRIRMRPPRLPRPRPRPGKSPRP | 0.0127
RRIRMRPPRLPRPRPRPGLQPRP | 4.5
RRIRMRPPRLPRPRPRPGLYPRP | -0.196
RRIRMRPPRLPRPRPRPGMFPRP | 0.341

Sequence | shrunken log2 fold change
RRIRMRPPRLPRPRPRPGMMPRP | 0.185
RRIRMRPPRLPRPRPRPGMRPRP | 1.54
RRIRMRPPRLPRPRPRPGMSPRP | -0.0593
RRIRMRPPRLPRPRPRPGMYPRP | 0.124
RRIRMRPPRLPRPRPRPGNYPRP | -0.0658
RRIRMRPPRLPRPRPRPGPDPRP | 0.768
RRIRMRPPRLPRPRPRPGPYPRP | -0.149
RRIRMRPPRLPRPRPRPGQDPRP | 0.781
RRIRMRPPRLPRPRPRPGRCPRP | 1.02
RRIRMRPPRLPRPRPRPGRDPRP | 1.4
RRIRMRPPRLPRPRPRPGRNPRP | 0.344
RRIRMRPPRLPRPRPRPGTGPRP | 0.596
RRIRMRPPRLPRPRPRPGVEPRP | 1.39
RRIRMRPPRLPRPRPRPGVGPRP | 0.841
RRIRMRPPRLPRPRPRPGVYPRP | 0.104
RRIRMRPPRLPRPRPRPGWIPRP | -0.0121
RRIRMRPPRLPRPRPRPGWNPRP | 0.226
RRIRMRPPRLPRPRPRPGYTPRP | -0.177
RRIRMRPPRLPRPRPRPHEYPRP | -0.308
RRIRMRPPRLPRPRPRPHGKPRP | -0.0884
RRIRMRPPRLPRPRPRPHGVPRP | 0.023
RRIRMRPPRLPRPRPRPHLAPRP | 1.6
RRIRMRPPRLPRPRPRPHLNPRP | 0.176
RRIRMRPPRLPRPRPRPHLYPRP | -0.0224
RRIRMRPPRLPRPRPRPHMGPRP | -0.0941

Sequence | shrunken log2 fold change
RRIRMRPPRLPRPRPRPHMNPRP | -0.0129
RRIRMRPPRLPRPRPRPHPHPRP | 0.187
RRIRMRPPRLPRPRPRPHPNPRP | 0.299
RRIRMRPPRLPRPRPRPHQGPRP | 0.013
RRIRMRPPRLPRPRPRPHQKPRP | -0.0408
RRIRMRPPRLPRPRPRPHRCPRP | 0.15
RRIRMRPPRLPRPRPRPHSCPRP | 0.0321
RRIRMRPPRLPRPRPRPHSDPRP | 2.6
RRIRMRPPRLPRPRPRPHSHPRP | 0.0536
RRIRMRPPRLPRPRPRPHSRPRP | 0.211
RRIRMRPPRLPRPRPRPHWMPRP | -0.137
RRIRMRPPRLPRPRPRPHYFPRP | -0.0364
RRIRMRPPRLPRPRPRPIADPRP | -0.00229
RRIRMRPPRLPRPRPRPIAKPRP | 0.494
RRIRMRPPRLPRPRPRPIAMPRP | 0.0028
RRIRMRPPRLPRPRPRPICDPRP | 0.36
RRIRMRPPRLPRPRPRPICYPRP | -0.119
RRIRMRPPRLPRPRPRPIDPPRP | -0.0553
RRIRMRPPRLPRPRPRPIDRPRP | -0.0322
RRIRMRPPRLPRPRPRPIFHPRP | -0.00123
RRIRMRPPRLPRPRPRPIFKPRP | 0.161
RRIRMRPPRLPRPRPRPIFMPRP | -0.0298
RRIRMRPPRLPRPRPRPIGWPRP | 0.599
RRIRMRPPRLPRPRPRPIHIPRP | -0.221
RRIRMRPPRLPRPRPRPIHPPRP | -0.0207

Sequence | shrunken log2 fold change
RRIRMRPPRLPRPRPRPIIDPRP | -0.399
RRIRMRPPRLPRPRPRPILIPRP | 0.0587
RRIRMRPPRLPRPRPRPILKPRP | -0.206
RRIRMRPPRLPRPRPRPILNPRP | -0.248
RRIRMRPPRLPRPRPRPILQPRP | 0.133
RRIRMRPPRLPRPRPRPILTPRP | 0.168
RRIRMRPPRLPRPRPRPINDPRP | -0.401
RRIRMRPPRLPRPRPRPINLPRP | -0.0139
RRIRMRPPRLPRPRPRPINMPRP | -0.0607
RRIRMRPPRLPRPRPRPINWPRP | -0.011
RRIRMRPPRLPRPRPRPIPHPRP | 0.246
RRIRMRPPRLPRPRPRPIPNPRP | 0.983
RRIRMRPPRLPRPRPRPIRAPRP | 0.3
RRIRMRPPRLPRPRPRPISEPRP | 0.151
RRIRMRPPRLPRPRPRPIVLPRP | -0.0572
RRIRMRPPRLPRPRPRPIVPPRP | 0.208
RRIRMRPPRLPRPRPRPIWTPRP | 0.12
RRIRMRPPRLPRPRPRPIWWPRP | 0.124
RRIRMRPPRLPRPRPRPIYRPRP | -0.0679
RRIRMRPPRLPRPRPRPKAEPRP | 3.05
RRIRMRPPRLPRPRPRPKALPRP | 0.025
RRIRMRPPRLPRPRPRPKAMPRP | 0.705
RRIRMRPPRLPRPRPRPKCKPRP | 0.365
RRIRMRPPRLPRPRPRPKCRPRP | 0.0493
RRIRMRPPRLPRPRPRPKEDPRP | 1.82
